Laboratory results: paper PMC3323627

Biological target: Tula virus (TULV) nonstructural protein NSs, strain Lodz, in infected cells (Tula virus, strain Lodz)
Test: FRET or BRET

“ACBD3 protein, endogenous in common vole (Microtus arvalis) kidney cells (natural protein)” showed an FRET efficiency of 20%.
